Here are results for 14 sequences from the DeepSol protein solubility set.

This data set is described as follows: soluble on expression in E. coli; label from the status in PepcDB or PDB records.
Take “MSLARVFNACLFFYKIGGKMAMGEFDLIKRYFQQQILVDDSVQLSIGDDCALVSVPENYQLAITTDTMVENTHFLPTISPEDLAYKAVATNLSDLAAMGAQPKWVSLALTLPNVDENWISTFSQSLLHTLKQYNVTLIGGDTTKGNLSITITAQGFVEKNKGICRHKAQIGDLIYVSSTLGDSAAGLTQILLGKSAVDSDDVFLQQRHLRPTPRIELGQALIGIAHVAIDLSDGLISDLGHILERSQCSAEVELTALPLSSSILNKYDRTQAEQFALSGGEDYELCFTIPPEYKDELELRLKKLNVPCTCIGKINEKCGDFSPRFLRDGKPVNITFSSGFDHFKESKEGHHHHHH”: the “soluble on expression in E. coli” value is “soluble”.
“MSLASFPHRNLTWNDINFVHTTDTHGWYSGHINQPLYHANWGDFISFTTHMRRIAHSRNQDLLLIDSGDRHDGNGLSDITSPNGLKSTPIFIKQDYDLLTIGNHELYLWENSKQEYETVVNHFQDKYVCSNVDIRLDNGLFVPLGLKYKYFTTPIRGIRVMAFGFLFDFKRFNSGTRVTPMAETIHEPWFQEALKHEVDLIIIVGHTPISHNWGEFYQVHQYLRQFFPDTIIQYFGGHSHIRDFTVFDSLSTGLQSGRYCETVGWTSVNLDKADLNLPVRQRFSRSYIDFNTDSFKYHTNLDKEFDTAKGKLVSKLIRETRKELKLDTLIGYVKTNYYVDYVPIDHPKSIFNLLALKILKTLPKSKHEERITIINTGSIRYDLYKGPYTIDSKFIVSPFENIWVNITVPKSVATKVAAKLNDADYISASRLKPPHQYDLQVQDLSTSPHQAHFEMQEKLPKGYVTHDDFGADGDDTLHRAVVNFPVPNVIQSVEINDEVDSPVNLVFYSFITPNIIWALKELNFSTEQVPTPYSDIYLGTLLNEFVANNEGHHHHHH”: the “soluble on expression in E. coli” value was “soluble”.
Under “MSLASLRVLALACLPLFAVLHADAKTLLGKVKRATGMGVGEGPSVAKKPKYTATVPGFTPPSGDQRMNEFMAVDTSGEFMRHLYIEEGRTVCASATSRNRRPTSESPHSDDVVVVEGMLRGRPETRVHAMFDGFQGRHSAMWLAQNVMNYLNDLRDVNEEEITRQFERMDGDLRAANLPGGSSALIIFVRYEKKPTEARVVGRQIVPEGAKEFTSVAEALGGPLMPVVAMNFRRDPRAAKGIYTIHVASLGNSRCVLKSGRTAIHLSTPHTASSHKERHRVQAAGGVFTTVNGELLLGGVVPMTRAFGSFDFKKGGQGKLQQDLVSAVPDVTTFFAYPGDDIVAGTAGAFAHFRSHAAIAAAIALYPVSPETVLDAAEGHHHHHH” stands “soluble”; under “MSLASVWKRLQRVGKHASKFQFVASYQELMVECTKKWQPDKLVVVWTRRSRRKSSKAHSWQPGIKNPYRGVVVWPVPENIEITVTLFKDPHAEEFEDKEWTFVIENESPSGRRKALATSSINMKQYASPMPTQTDVKLKFKPLSKKVVSATLQFSLSCIFLREGKATDEDMQSLASLMSMKQADIGNLDDFEEDNEDDDENRVNQEEKAAKITEGHHHHHH”, “not soluble”.
Take “MSLAVEKITMPKLGESVTEGTISSWLVKPGDTVEKYDAIAEVLTDKVTAEIPSSFSGTIKEILAEEDETLEVGEVICTIETADAGSSEPVAEVEETETKAPEKQETKQVKLADAPASGRFSPAVLRIAGENNIDLSTVEGTGKGGRITRKDLLQVIENGPVAKREEMKSAPQEKAAMPTPPVRSAAGDKEIPINGVRKAIAKHMSVSKQEIPHAWMMVEVDATGLVRYRNAVKDSFKKEEGYSLTYFAFFIKAVAQALKEFPQLNSTWAGDKIIEHANINISIAIAAGDLLYVPVIKNADEKSIKGIAREISELAGKARNGKLSQADMEGGTFTVNSTGSFGSVQSMGIINHPQAAILQVESIVKRPVIIDDMIAVRDMVNLCLSIDHRILDGLLAGKFLQAIKANVEKISKENTALYEGHHHHHH”: the “soluble on expression in E. coli” value was “soluble”.
Under “MSLAVIKQDDLIQSVADALQFISYYHPVDFIQAMHEAYLREESPAARDSMAQILINSRMCATGHRPICQDTGIVTVFVRVGMDVRWDGATMSVDDMINEGVRRAYNLPENVLRASILADPAGARKNTKDNTPAVIHYSIVPGDKVEVDVAAKGGGSENKSKMAMLNPSDSIVDWVLKTVPTMGAGWCPPGMLGIGIGGTAEKAAVMAKEVLMDPIDIHELKARGPQNRIEELRLELFEKVNQLGIGAQGLGGLTTVLDVKIMDYPTHAASLPVCMIPNCAATRHAHFVLDGSGPAELEAPSLDAYPEIVWEAGPSARRVDLDKITPEEVQSWKPGETLLLNGKMLTGRDAAHKRMVDMLNKGETLPVDLKGRFIYYVGPVDPVGDEVVGPAGPTTATRMDKFTRQILEQTGLLGMIGKSERGPIAIEAIKDNKAVYLMAVGGAAYLVAQAIKKSKVLAFAELGMEAIYEFEVKDMPVTVAVDTNGESVHITGPAVWQKKIAESLAVEVKEGGSHHHHHH” stands “soluble”; under “MSLAVKPIPEGQHSITPYLAINDAAKAIEFYKQAFGAKEMFRLDAPGGRVGHAELRIGDSSLMLGDPCDMEGGLTASQKLSGAGVGLHLYVEDCDKVYAQALAAGGIQLHPLTDQFYGDRSGTLKDPFGNIWFVSTHKEDLTPDEIRARAAKMFGEGHHHHHH”, “soluble”; under “MSLAVVKGARVQVPFGQQIKVGIVVDLPSTTDIPQSKLKPIHAVLDHQAIFDPEIWQLLHWAASYYHAAIGEVLASALPVKLRNGDAAEYVENDYFRVTELGQQRLVSPENKRSKKQYDLLSRLAEIAGFFEKPAGVSPSVWKALLEKGYLAKVVPTCQRKSWQQSLANRPLVNSQSRLVLNQQQTLVVSRLNACQNFETFLLNGITGSGKTEVYLQVIEQILKQDKQVLVLVPEIGLTPQMVNRFKTRFNVEIDVLHSNINETMRLKVWLKAKNGESAIVIGTRSALFTQFQRLGLIIIDEEHDHSFKQQEGWRYHARDVAIFRAKCLNIPIILGSATPSLESVYNVKNGKFTQLLLSTRAGNAEIAQQQLIDLKTQRITAGLSDRLLMLMQTHLQKGNQVMLFLNRRGFAPVLLCHECGWICECDACEKPYTYHQKQRVLRCHHCASQRVIPRQCGYCGSTNLITTGIGTEQLEQLLSEYFPTYQISRIDRDSTGRKGALEHHLNAIQTGKSQILIGTQMLAKGHHFPNVTLVALVNVDSALFSTDFRAEERLAQLYLQVAGRAGRAEKTGEVVLQTHYPDHPLLKCLLKDGYNAFAEEALKMRQVMALPPFTAQVLFRATGKQSDKVEHLLQNLTAYFQHKSVELGIEGIQISPPFSAIVAKKAGYYRWLLLIQHQSRSAIQQLLNVFDQEKSALNLPANIRLSLDVDPYDMSEGHHHHHH”, “soluble”.
Turning to “MSLAVVRTINGDVSPDTLGVVNAHDHLIRVGAGEVYIDPDHLLDDVDKAAQEATYFVEASKSWAAGGTIIDMCPASSGRGVLKTLQVVEKVPGLQVVQATGFHQQKVYLEWRQSWVNQYTVTQIADLLIADIVEGIDRFDYMGPIVERTNVKAGVIKWATAYGKITEWEKKSGQAVAIASKETGCPINTHVTAGTCGPEQARFLVDQGVDPAKIAIGHMQRNWDPWVHEQICKLGCYVELDGTNRIKYVPDNTRVNLVKTLGEKGYGKQILLGTDSGKASYQKVYGSVSGIDYDPAVFCPRLVEDEGVDRDYVNDLLINNAATFFGFEPLAEGHHHHHH”, the “soluble on expression in E. coli” value is on record as “not soluble”.
As for “MSLDAHNFFKAGPYAPLAARMRPQSLDEVVGQRHLLDSGKPLQRLIAGSGDASVILYGPPGTGKTTIASLISAGTGHEFVGLSALNSGVKEIREVIDQARRNLIHGKRTVLFIDEVHRFSKTQQDALLAAVENRTVLLVAATTENPSFSVVAPLLSRSLILQLKPLTHDDIKTVLLHALQDKRGLDNRITISDEALEQLVLLSGGDARRSLTYLEAASESLADGEELTPEIIRHNVDKAIVRYDRDGDQHYDVVSAFIKSMRGSDVDAALHYLARMIDAGEDPRFIARRLVIHASEDVGMADPQALSVAVAASQAVALIGMPEARINLAQATIHLATAPKSNAVITAIDAALADVKQGKTGPVPAHLRDGHYAGAKQLGNAVGYKYPHDDPRGIVEQQYIPNGLEDVVYYRPSEHGAEQRIESYLGKLRRIVRGQREGHHHHHH”, the “soluble on expression in E. coli” value is “soluble”.
Turning to “MSLDIKRVLKAAPTKMRSREPLQQLWTPWGERIEHEWLSARAGNKAFNPAEEGERTLDEGRTPILGEHPRPTMVRDNCTMLNGWWDYAIVSIPEDETAPKWRKTAAMLTRDEAVRAVKETAIPQTFDGKILVPFSPESALSGVHQTIYPDNLLWYRTVVHPVTLGGEETVRQIGDANRLILHFEAVDYVCACYVNGQLAGTHVGGYLPFDVDISAFIDPDDAFEIALCVYDPNDSGTQLRGKQKIEREGIWYTAQSGIWQSVWLEIVPEAYLRTLTLKGASDGKLFVRAEIGGDKPNAKLHIVVTDPADGTVVADETLPAGVRKVRAEIATAAEHLWSPADPYLYDVRAELRYGSAKPAETAGDAAVVQSQPMDVVSSYCAFRSVEIKPDTKGVARFHLNGKPLFVKGVLDQGYWPDGLMTAPDDEALTHDITAMKNAGFNMLRKHIKIESARWYYHCDRLGMLVWQDAVSGGGTDGEYNAWTTNRKPTLIRSTWNKFRDDTAKHFTALGADDPIYRRDWSRTCDAMVHMLGGHPSIVTWTLFNEGWGQFDACDATERIHALDPTRPIDATSGWYDQHCGDYHSVHNYFRPLEIYPDKGPLRGYVAEFEKKHRRRRRAAHYVVLPVARHGVRAFVISEFGGLAQLVPEHAAVSRAYGYGEYDSIDDWRAAVRSVLASAAALESRGLAGYVYTQVSDVEEELNGLLTYDRRVDKFAEEGHHHHHH”, the “soluble on expression in E. coli” value is “soluble”.
With “MSLDIQPFSMPLSSPLSTADGTIESRRGFLVRTEIDGVAGVGEAAPLPGWTESYDACQAALCGVEKPKQALEDNVFDDTPAARHAVSLAVADAAARRAGVPLYRRLGAGERVESVPVNATVGDGSPSATAEAVADAAAAGFPAAKVKVGNRSLDADIERIEAVRQRYPDIELRVDANGAWEFETAREAVESMSALGVAVLEQPLPAEALDNHRRLRGHGIDIALDEGLLRHGVDAAIAAEAADCLVCKPMALGGVDIARSAAERARADGWDVIVTTTIDGVVARAAAVHLAASVPDVRPCGLATGGRLASDVGPDAAPVSDGTAAVPQGKGNIPPLEGHHHHHH”, the “soluble on expression in E. coli” value is “soluble”.
Turning to “MSLDKLQRISEAIKSKKKLVVMFSGGVDSTLLAKLAREVLGKNAVALTIDSPVIPRKEIEEAKNLANLIGIRHEFIELNELKSRHLIENPPDRCYLCRKLRDNIVKNWARENGFDVIADGLNFSDLQDYRPGVKASTEDGIWHPFIDFEVTKEEIREYSKKLGLPTWDKPAMACLCSRFPYGFGLNEERVRMVEKAENFLRELGFREVRVRFFPYKTAVVEVGRDEMELLMGKRTDIVLALQKIGFSFVTLDLEGFASGKLNRTIEGMSKEGGSHHHHHH”, the “soluble on expression in E. coli” value is on record as “soluble”.
Turning to “MSLDKPVIKISTENVDLIYRVGDNGRLYQSYLGKRLNHATDIAHLPQGSEAYLTHGMEDYFEPAIHIVHNDGNPSTLLKYVSHTRNQVSPGVDEVVITMQDDKYPVTVKLHYVAYQKENLIKTFTEISHREKKPVQLHKYASSMLHLNRANYFLTEFSGDWASEAHVKEQPLEFGKKTIDTKLGARANMFCSPFFQLALDGKSEENQGEVLVGTLGWTGNFSFVFEVDNKNELRVISGINPYASEYSLKPNEIFRTPDFYFTYSFKGKGQASRNFHDWARKYQVKDGNQTRMTLLNNWEATYFDFDEAKLVKLMDDAVELGVDMFLLDDGWFANKYPRSGDHQGLGDWDETADKLPHGIGYLTEAAKKKGIKFGIWIEPEMVNPKSELYEKHKDWVIHLPNRDEYYFRNQLVLDLSNPKVQDYVFGVVDNLMTKYPDIAFFKWDCNSPITNIYSVYLKDKQSHLYIDYVRGLYNVLERVKAKYPDLPMMLCSGGGGRSDYEALSYFTEFWPSDNTDPIERLFIQWGFSQVFPAKTMCAHVTTWNKNSSVKFRTDVAMMCKLGFDIKLADMSKDDETYCRTAVQNYNRLKPVVLEGDMYRLVSPYGSNHTSTMYVGKDKDKAVVFAFDIHPRYAEKILPVRLQGLDADKMYRVKEINLMPGANSSLSGNGEVFSGEFLMNVGLNLFTTQQLNSRVIEVVAEGHHHHHH”, the “soluble on expression in E. coli” value was “soluble”.
